Measured values: patent US5910478A, “Peptidomimetics inhibiting the oncogenic action of p21 ras” (Innapharma, Inc., dated 1999)

T1: recombinant transforming ras p21 (human)
T1 chain: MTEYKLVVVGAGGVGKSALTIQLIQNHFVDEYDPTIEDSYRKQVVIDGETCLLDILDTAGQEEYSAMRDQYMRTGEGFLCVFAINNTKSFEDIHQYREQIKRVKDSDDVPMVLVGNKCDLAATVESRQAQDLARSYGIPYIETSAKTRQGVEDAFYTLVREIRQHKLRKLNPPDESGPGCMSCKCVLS


Test system: oncogenic ras-p-21
Test: not given
Conditions: background; cited from earlier work

**Q.** With N[C@@H](Cc1ccc(O)cn1)C(=O)O [Azatyrosine] as the molecule, how does the “inhibition of oncogenic ras-p-21” value read?
**A.** strongly inhibits

Molecular target: T1, recombinant transforming ras p21
Test: cell-based or functional assay
Conditions: not given

**Q.** Which “Present Inhibition of ras-Induced Maturation” value (shortened to “Present Inhibition”) does the source give for TIEDSYRKQVVID [peptide of SEQ ID NO:6 (residues 35 through 47 of SEQ ID NO:5)] here?
**A.** 28 percent

**Q.** Which “Present Inhibition” value does the source give for VVI [Val-Val-Ile] here?
**A.** 34 percent

**Q.** Which “Present Inhibition” value does the source give for YREQIKRVKDSDDVP [peptide of SEQ ID NO:7 (residues 96 to 110 of SEQ ID NO:5)] here?
**A.** 56 percent

**Q.** With KRV [Lys-Arg-Val] as the molecule, how does the “Present Inhibition” value read?
**A.** 22 percent

**Q.** Which “Present Inhibition” value does the source give for IKRVKD [peptide of SEQ ID NO:1 (residues 100 to 105 of SEQ ID NO:5)] here?
**A.** 76 percent

**Q.** For GNKCDLAARTVE [peptide of SEQ ID NO:8 (residues 115 to 126 of SEQ ID NO:5)], which “Present Inhibition” value is on record?
**A.** 92 percent

**Q.** With KCDLA [peptide of SEQ ID NO:2 (residues 117 to 121 of SEQ ID NO:5)] as the molecule, how does the “Present Inhibition” value read?
**A.** 38 percent

**Q.** Which “Present Inhibition” value does the source give for CDLAART [peptide of SEQ ID NO:9 (residues 118 to 124 of SEQ ID NO:5)] here?
**A.** 65 percent

**Q.** For DLAA [peptide of SEQ ID NO:4 (residues 119 to 122 of SEQ ID NO:5)], which “Present Inhibition” value is on record?
**A.** 22 percent
